The record followed here is patent publication US20130317087A1 (UNIVERSITY OF ROCHESTER, published 2013).

One assay deals with T1, calnexin (UniProt P27824 21-592).
T1 construct: Specificity control
T1 sequence (looked up): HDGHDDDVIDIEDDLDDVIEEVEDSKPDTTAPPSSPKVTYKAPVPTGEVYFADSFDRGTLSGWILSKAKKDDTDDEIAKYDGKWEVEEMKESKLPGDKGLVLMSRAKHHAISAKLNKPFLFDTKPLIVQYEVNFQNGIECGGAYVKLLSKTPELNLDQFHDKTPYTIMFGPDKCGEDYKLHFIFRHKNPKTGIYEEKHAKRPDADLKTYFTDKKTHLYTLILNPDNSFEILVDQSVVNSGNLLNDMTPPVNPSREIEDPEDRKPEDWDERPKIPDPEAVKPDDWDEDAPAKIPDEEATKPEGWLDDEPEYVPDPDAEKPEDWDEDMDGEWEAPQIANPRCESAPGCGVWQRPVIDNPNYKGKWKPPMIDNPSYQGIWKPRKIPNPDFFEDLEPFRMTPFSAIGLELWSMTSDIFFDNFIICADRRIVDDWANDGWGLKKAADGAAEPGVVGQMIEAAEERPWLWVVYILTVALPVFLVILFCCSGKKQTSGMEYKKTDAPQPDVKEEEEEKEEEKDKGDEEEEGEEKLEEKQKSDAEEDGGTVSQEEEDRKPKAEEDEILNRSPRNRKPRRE
The assay is described as follows: co-immunoprecipitation with anti-GFP from HEK293T lysates in the presence of RNase A; western blot alpha-Calnexin (control for IP specificity). From the text:
Western blotting (WB) using the specified antibody, where calnexinservesto control for IP specificity. Results are representative of three independently performed experiments.
Human embryonic kidney (HEK)293T cells were transiently transfected with a mixture of two plasmids: (i) pEGFP-‘RBD’5, which produces monomeric enhanced green fluorescence protein (EGFP)-‘RBD’5 and either pmRFP-SSM-‘RBD’5 or pmRFP-‘RBD’5, which produce monomeric red fluorescence protein (mRFP)—SSM-‘RBD’5 or mRFP-‘RBD’5, respectively; or (ii) pEGFP-SSM-‘RBD’5 and either pmRFP-SSM-‘RBD’5 or pmRFP-‘RBD’5 (FIG. 1D, upper). […] Cell lysates were immunoprecipitated in the presence of RNase A using anti-GFP or, to control for nonspecific immunoprecipitation (IP), mouse(m)IgG.
On the technique in general: In western blotting, separated proteins are transferred to a membrane and probed.

For the next assay, the target named is T2, mRFP-‘RBD’5 (human, UniProt O95793-2 407-476).
T2 construct: domain: ‘RBD’5; also called monomeric red fluorescence protein-‘RBD’5; product of pmRFP-hSTAU1-‘RBD’5; not shown: N-terminal mRFP (monomeric DsRed derived from pDsRed-Express-C1) with vector linker
T2 sequence (looked up): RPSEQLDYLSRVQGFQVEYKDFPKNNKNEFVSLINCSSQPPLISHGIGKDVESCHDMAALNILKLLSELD
Briefly: anti-GFP co-IP from HEK293T lysates with RNase A, western blotting.

The target in assay [1] is T3, cellular hUPF1 (human, UniProt Q92900-2 1-1118, limits assumed).
T3 construct: Endogenous protein detected by western blotting
T3 sequence (looked up): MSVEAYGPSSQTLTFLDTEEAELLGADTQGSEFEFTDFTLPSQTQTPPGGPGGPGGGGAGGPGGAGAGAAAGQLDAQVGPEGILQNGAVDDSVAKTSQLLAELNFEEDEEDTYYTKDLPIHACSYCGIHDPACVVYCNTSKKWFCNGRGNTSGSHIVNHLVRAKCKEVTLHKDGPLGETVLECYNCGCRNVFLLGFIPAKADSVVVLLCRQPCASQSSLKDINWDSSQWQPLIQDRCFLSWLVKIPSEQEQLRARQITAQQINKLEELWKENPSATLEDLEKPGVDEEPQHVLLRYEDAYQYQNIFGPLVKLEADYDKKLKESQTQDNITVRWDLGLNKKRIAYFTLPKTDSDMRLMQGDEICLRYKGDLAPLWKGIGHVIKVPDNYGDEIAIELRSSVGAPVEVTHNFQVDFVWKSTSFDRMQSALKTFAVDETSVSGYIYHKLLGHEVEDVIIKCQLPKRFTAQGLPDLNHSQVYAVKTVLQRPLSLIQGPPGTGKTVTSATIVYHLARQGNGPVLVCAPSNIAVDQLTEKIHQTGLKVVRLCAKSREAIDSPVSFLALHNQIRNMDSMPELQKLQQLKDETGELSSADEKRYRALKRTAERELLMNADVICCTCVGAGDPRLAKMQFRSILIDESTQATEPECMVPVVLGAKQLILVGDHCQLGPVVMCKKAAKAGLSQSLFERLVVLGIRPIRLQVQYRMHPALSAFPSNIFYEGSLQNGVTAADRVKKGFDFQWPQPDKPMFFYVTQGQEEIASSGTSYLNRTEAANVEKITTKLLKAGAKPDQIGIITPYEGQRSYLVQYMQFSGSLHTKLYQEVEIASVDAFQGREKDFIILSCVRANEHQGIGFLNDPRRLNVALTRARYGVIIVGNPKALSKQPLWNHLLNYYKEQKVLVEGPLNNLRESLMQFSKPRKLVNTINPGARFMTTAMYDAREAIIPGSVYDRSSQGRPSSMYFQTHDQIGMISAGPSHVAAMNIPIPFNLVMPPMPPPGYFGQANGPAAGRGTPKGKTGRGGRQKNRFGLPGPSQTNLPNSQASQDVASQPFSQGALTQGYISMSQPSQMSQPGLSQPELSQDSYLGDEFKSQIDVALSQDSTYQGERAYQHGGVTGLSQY
Described as above.

In assay [2] the target is T3, cellular hUPF1. The assay is described as follows: co-immunoprecipitation with anti-GFP from HEK293T lysates in the presence of RNase A; western blot alpha-UPF1.
The next assay concerns the target T4, mRFP-SSM-‘RBD’5 (human, UniProt D2GVP7 455-564 (Ailuropoda melanoleuca entry), N-terminal mRFP fusion is not carried in the letters.).
T4 construct: Expressed in HEK293T cells; also called monomeric red fluorescence protein-SSM-‘RBD’5; product of pmRFP-hSTAU1-SSM-‘RBD’5; not shown: N-terminal mRFP (monomeric DsRed from a pDsRed-Express-C1 derivative) and the vector-encoded linker
T4 sequence: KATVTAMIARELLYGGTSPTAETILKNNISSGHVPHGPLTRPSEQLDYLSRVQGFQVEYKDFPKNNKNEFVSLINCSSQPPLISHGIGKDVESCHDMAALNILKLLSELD
Briefly: anti-GFP co-IP from HEK293T lysates with RNase A, western blotting.

B1: EGFP-‘RBD’5 (other, human, UniProt O95793-2 407-476, looked up)
chain: T2 sequence (looked up)
notes: domain: ‘RBD’5; also called monomeric enhanced green fluorescence protein-‘RBD’5; product of pEGFP-hSTAU1-‘RBD’5; not shown: N-terminal monomeric EGFP from pEGFP-C3 with vector linker
In the case of B1, the binding result with calnexin, in the assay with mRFP-‘RBD’5 and with cellular hUPF1 [1] was “no binding” each time.

B2: EGFP-SSM-‘RBD’5 (other, human, UniProt O95793-2 367-476, looked up)
chain: T4 sequence
notes: range 367-476; Expressed in HEK293T cells; tested in lysates with RNase A; also called monomeric enhanced green fluorescence protein-SSM-‘RBD’5; product of pEGFP-hSTAU1-SSM-‘RBD’5; not shown: N-terminal monomeric EGFP from pEGFP-C3 (BD Biosciences Clontech) with vector linker
B2: the binding result in the assay with calnexin was “no binding”; with cellular hUPF1 [2], “no binding”; in the assay with mRFP-SSM-‘RBD’5, “binds”.
